± gives the uncertainty stated by the source.
Assay: self-splicing fitness, log relative to wild type (ln ratio); higher = more splicing; Tetrahymena group I intron in knt gene, E. coli kanamycin selection, DiMSum; sequences stand for … in CUCUCU…GGAGGGAAAAGUUAUCAGGCAUGCACCUGGUAGCUAGUCUUUAAACCAAUAGAUUGCAUCGGUUUAAAAGGCAAGACCGUCAAAUUGCGGGAAAGGGGUCAACAGCCGUUCAGUACCAAGUCUCAGGGGAAACUUUGAGAUGGCCUUGCAAAGGGUAUGGUAAUAAGCUGACGGACAUGGUCCUAACCACGCAGCCAAGUCCUAAGUCAACAGAUCUUCUGUUGAUAUGGAUGCAGUUCACAGACUAAAUGUCGGUCGGGGAAGAUGUAUUCUUCUCAUAAGAUAUAGUCGGACCUCUCCUUAAUGGGAGCUAGCGGAUGAAGUGAUGCAACACUGGAGCCGCUGGGAACUAAUUUGUAUGCGAAAGUAUAUUGAUUAGUUUUGGAGUACUCGUGGUCG
Method in brief: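 Pooled colonies went to amplicon sequencing on an Illumina HiSeq 2500 after six replicate transformations. The plates were LB agar with 100 μg/mL carbenicillin, 50 μM IPTG and 0.2% rhamnose, with or without 25 μg/mL kanamycin, incubated overnight at 37°C or 30°C. The E. coli BL21(DE3) library had all eight P1ex-region intron nucleotides randomised, the intron placed in the knt kanamycin-resistance gene on pET-22b(+). DiMSum fitness is the error-weighted combination of replicate fold changes, kanamycin against none, normalised to wild type.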

| Sequence | self-splicing fitness (ln) (30 °C) | self-splicing fitness (ln) (37 °C) |
| --- | --- | --- |
| CUACAGCAAUAUUACGCCGC | -3.76 ± 0.22 | -3.62 ± 0.39 |
| CUACAGCAAUAUUACGCGGG | -2.27 ± 0.094 | -2.56 ± 0.12 |
| CUACAGCAAUAUUACGGAUG | -0.683 ± 0.056 | -0.187 ± 0.076 |
| CUACAGCAAUAUUACGGCAC | -3.29 ± 0.23 | -2.45 ± 0.32 |
| CUACAGCAAUAUUACGGUAA | -0.706 ± 0.066 | -0.344 ± 0.076 |
| CUACAGCAAUAUUACGGUCU | -4.27 ± 0.19 | -2.13 ± 0.16 |
| CUACAGCAAUAUUACGGUUG | -1.78 ± 0.078 | -1.73 ± 0.091 |
| CUACAGCAAUAUUACGUAUU | -4.19 ± 0.2 | -2.94 ± 0.18 |
| CUACAGCAAUAUUACGUCAG | -1.55 ± 0.12 | -1.18 ± 0.13 |
| CUACAGCAAUAUUACGUCAU | -4.33 ± 0.22 | -3.72 ± 0.19 |
| CUACAGCAAUAUUACGUCGC | -4.05 ± 0.3 | -2.11 ± 0.23 |
| CUACAGCAAUAUUACGUGCA | -3.73 ± 0.35 | -2.5 ± 0.18 |
| CUACAGCAAUAUUACGUGGC | -3.68 ± 0.29 | -2.44 ± 0.32 |
| CUACAGCAAUAUUACGUUAG | -3.78 ± 0.23 | -2.54 ± 0.14 |
| CUACAGCAAUAUUACGUUCG | -0.275 ± 0.063 | 0.0364 ± 0.083 |
| CUACAGCAAUAUUACGUUGU | -3.66 ± 0.14 | -3.95 ± 0.21 |
| CUACAGCAAUAUUACGUUUA | -3.39 ± 0.22 | -2.86 ± 0.19 |
| CUACAGCAAUAUUACGUUUU | -4.17 ± 0.18 | -3.26 ± 0.22 |
| CUAGAGCAAUAUUACGAAAA | -1.94 ± 0.44 |  |
| CUAGAGCAAUAUUACGAAGG | -1.22 ± 0.12 | -0.403 ± 0.15 |
| CUAGAGCAAUAUUACGACCC | -1.62 ± 0.38 |  |
| CUAGAGCAAUAUUACGACCG | 0.13 ± 0.13 | 0.707 ± 0.18 |
| CUAGAGCAAUAUUACGACGG | -0.119 ± 0.12 | 0.393 ± 0.17 |
| CUAGAGCAAUAUUACGAGCG | 0.131 ± 0.1 | 0.74 ± 0.12 |
| CUAGAGCAAUAUUACGCCUU | -3.42 ± 0.19 | -0.994 ± 0.24 |
| CUAGAGCAAUAUUACGCGAA | -3.1 ± 0.38 | -2.09 ± 0.43 |
| CUAGAGCAAUAUUACGCUAA | -3 ± 0.23 | -2.49 ± 0.25 |

| Sequence | self-splicing fitness (ln) (30 °C) | self-splicing fitness (ln) (37 °C) |
| --- | --- | --- |
| CUAGAGCAAUAUUACGCUCU | -2.43 ± 0.28 | -2.8 ± 0.43 |
| CUAGAGCAAUAUUACGGCCG | -0.252 ± 0.15 | 0.456 ± 0.27 |
| CUAGAGCAAUAUUACGGCGU | -4.02 ± 0.26 | -0.833 ± 0.16 |
| CUAGAGCAAUAUUACGGGGU |  | -2.6 ± 0.3 |
| CUAGAGCAAUAUUACGGGUC | -4.31 ± 0.25 | -3.61 ± 0.39 |
| CUAGAGCAAUAUUACGGUGA | -3.58 ± 0.16 | -1.46 ± 0.17 |
| CUAGAGCAAUAUUACGUAGC |  | -1.49 ± 0.27 |
| CUAGAGCAAUAUUACGUCAU | -4.42 ± 0.28 | -2.58 ± 0.18 |
| CUAGAGCAAUAUUACGUCGU | -3.73 ± 0.42 |  |
| CUAGAGCAAUAUUACGUCUA | -1.15 ± 0.12 | -0.248 ± 0.18 |
| CUAGAGCAAUAUUACGUGAG | -0.395 ± 0.074 | 0.0704 ± 0.095 |
| CUAGAGCAAUAUUACGUUGU | -3.77 ± 0.2 | -2.5 ± 0.22 |
| CUAGAGCAAUAUUACGUUUA | -4.4 ± 0.24 | -0.83 ± 0.17 |
| CUAUAGCAAUAUUACGACAC | -2.95 ± 0.34 | -1.88 ± 0.28 |
| CUAUAGCAAUAUUACGAGGA | -3.62 ± 0.41 | -1.73 ± 0.31 |
| CUAUAGCAAUAUUACGAGUG | -0.752 ± 0.071 | 0.361 ± 0.1 |
| CUAUAGCAAUAUUACGAGUU | -3.04 ± 0.16 | -0.864 ± 0.18 |
| CUAUAGCAAUAUUACGAUAA | -1.1 ± 0.11 | -0.839 ± 0.17 |
| CUAUAGCAAUAUUACGCAAG | -3.11 ± 0.2 | -2.22 ± 0.18 |
| CUAUAGCAAUAUUACGCAUU | -5.27 ± 0.38 | -2.95 ± 0.31 |
| CUAUAGCAAUAUUACGCCGC |  | -2.27 ± 0.41 |
| CUAUAGCAAUAUUACGCGGA | -1.13 ± 0.49 |  |
| CUAUAGCAAUAUUACGGAGG | -2.7 ± 0.17 | 0.224 ± 0.16 |
| CUAUAGCAAUAUUACGGAUA |  | -2.24 ± 0.37 |
| CUAUAGCAAUAUUACGGCAA | -3.31 ± 0.29 | -2.63 ± 0.45 |
| CUAUAGCAAUAUUACGGCAU | -3.11 ± 0.25 | -2.37 ± 0.24 |
| CUAUAGCAAUAUUACGGCUC | -3.46 ± 0.36 | -2.47 ± 0.48 |

| Sequence | self-splicing fitness (ln) (30 °C) | self-splicing fitness (ln) (37 °C) |
| --- | --- | --- |
| CUAUAGCAAUAUUACGGGCU | -2.63 ± 0.19 | -3.38 ± 0.39 |
| CUAUAGCAAUAUUACGUGCA | -3.24 ± 0.18 | -2.37 ± 0.19 |
| CUAUAGCAAUAUUACGUGUU | -3.74 ± 0.16 | -3.15 ± 0.27 |
| CUAUAGCAAUAUUACGUUCA | -2.87 ± 0.24 | -2.93 ± 0.35 |
| CUCAAGCAAUAUUACGACCA |  | -0.985 ± 0.26 |
| CUCAAGCAAUAUUACGAGCA |  | -2.49 ± 0.33 |
| CUCAAGCAAUAUUACGAGUU | -3.34 ± 0.15 | -2.52 ± 0.15 |
| CUCAAGCAAUAUUACGAUAU | -2.97 ± 0.14 | -1.61 ± 0.14 |
| CUCAAGCAAUAUUACGCAGG | -2.99 ± 0.23 | -2.84 ± 0.31 |
| CUCAAGCAAUAUUACGCAUC | -3.63 ± 0.23 | -2.3 ± 0.25 |
| CUCAAGCAAUAUUACGGCAG | -2.26 ± 0.068 | -0.745 ± 0.092 |
| CUCAAGCAAUAUUACGGCGU | -2.09 ± 0.23 | -2.39 ± 0.46 |
| CUCAAGCAAUAUUACGGGCU | -4.09 ± 0.27 | -3 ± 0.26 |
| CUCAAGCAAUAUUACGGGGU | -3.4 ± 0.15 | -3.44 ± 0.19 |
| CUCAAGCAAUAUUACGGGUU | -3.49 ± 0.17 | -1.4 ± 0.13 |
| CUCAAGCAAUAUUACGUAUC | -2.94 ± 0.14 | -1.79 ± 0.14 |
| CUCAAGCAAUAUUACGUCGC | -4.2 ± 0.39 | -2.27 ± 0.33 |
| CUCAAGCAAUAUUACGUCUA | -3.15 ± 0.16 | -2.07 ± 0.14 |
| CUCAAGCAAUAUUACGUCUG | -4.24 ± 0.28 | -1.36 ± 0.17 |
| CUCAAGCAAUAUUACGUUAC | -4.46 ± 0.31 | -3.47 ± 0.29 |
| CUCAAGCAAUAUUACGUUAG | -2.26 ± 0.062 | -1.47 ± 0.075 |
| CUCAAGCAAUAUUACGUUAU | -3.81 ± 0.15 | -3.39 ± 0.2 |
| CUCAAGCAAUAUUACGUUCU | -3.9 ± 0.19 | -2.68 ± 0.17 |
| CUCAAGCAAUAUUACGUUUA | -3.93 ± 0.24 | -2.65 ± 0.16 |
| CUCCAGCAAUAUUACGAAAU | -2.83 ± 0.19 | -1.75 ± 0.31 |

Reference: the supplement of paper PMC7877785
